One molecule from patent US20110034396A1 can be followed below.

Test in all cases: cell-based or functional assay
One experiment addresses collagen type IV.
The target of a further experiment is fibronectin.
Experiment [1] concerns the target bovine serum albumin (bovine) (UniProt P02769).
Chain of UniProt P02769 (P02769 25-607 limits assumed): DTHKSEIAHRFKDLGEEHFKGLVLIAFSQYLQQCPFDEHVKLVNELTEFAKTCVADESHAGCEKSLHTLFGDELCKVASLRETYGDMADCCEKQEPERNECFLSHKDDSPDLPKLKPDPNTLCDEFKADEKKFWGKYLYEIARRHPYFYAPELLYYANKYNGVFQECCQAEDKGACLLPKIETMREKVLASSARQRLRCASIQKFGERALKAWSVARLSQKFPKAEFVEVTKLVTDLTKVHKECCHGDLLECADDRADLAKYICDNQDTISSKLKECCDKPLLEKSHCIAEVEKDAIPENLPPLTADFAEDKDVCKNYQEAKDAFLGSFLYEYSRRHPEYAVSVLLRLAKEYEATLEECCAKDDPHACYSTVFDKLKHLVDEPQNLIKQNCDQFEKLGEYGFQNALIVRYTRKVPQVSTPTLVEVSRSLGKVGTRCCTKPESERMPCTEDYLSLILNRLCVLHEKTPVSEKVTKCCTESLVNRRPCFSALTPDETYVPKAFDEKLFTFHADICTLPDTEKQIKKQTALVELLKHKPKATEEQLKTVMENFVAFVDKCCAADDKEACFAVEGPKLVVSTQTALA

B1: saratin (protein)
chain: EEREDCWTFYANRKYTDFDKSFKKSSDLDECKKTCFKTEYCYIVFEDTVNKECYYNVVDGEELDQEKFVVDENFTENYLTDCEGKDAGNAAGTGDESDEVDED
In the experiment with collagen type IV, B1 displayed a Saratin IC50, MCP-1-induced human monocyte migration through filters coated with Collagen IV, coating conc. 0.01 (Boyden chamber) of 0.172 nM; a Saratin IC50, MCP-1-induced human monocyte migration through filters coated with Collagen IV, coating conc. 1.0 (Boyden chamber) of 0.0623 nM; a Saratin IC50, MIP-1alpha-induced human T lymphocyte migration through filters coated with Collagen IV, coating conc. 0.01 (Boyden chamber) of 6.86 nM; a Saratin IC50, MIP-1alpha-induced human T lymphocyte migration through filters coated with Collagen IV, coating conc. 1.0 (Boyden chamber) of 0.0079 nM. Further, in the experiment with fibronectin, the Saratin IC50, MCP-1-induced human monocyte migration through filters coated with Fibronectin, coating conc. 1.0 (Boyden chamber) is 19.4 nM and the Saratin IC50, MIP-1alpha-induced human T lymphocyte migration through filters coated with Fibronectin, coating conc. 1.0 (Boyden chamber) is 3.69 nM. In experiment [1], this molecule showed an IC50 of saratin inhibition of MCP-1-induced human monocyte migration through filters coated with 1 mg/mL BSA (Boyden chamber) of 37 nM; a Saratin IC50, MCP-1-induced human monocyte migration through filters coated with BSA, coating conc. 1.0 as the table prints it (the text gives 1.1 nM for 0.01 mg/mL BSA) (Boyden chamber) of 1.1 nM; a Saratin IC50, MIP-1alpha-induced human T lymphocyte migration through filters coated with BSA, coating conc. 1.0 (Boyden chamber) of 185 nM.
